Laboratory results: IntAct's records for PubMed 22037600

B1: Endoribonuclease ZC3H12A (Mus musculus), Q5D1E7 (parent)
chain: MSDPCGTKPVQESNPTMSLWSLEDRHSSQGRPQPDQDPVAKEAPTSELQMKVDFFRKLGYSSSEIHSVLQKLGVQADTNTVLGELVKHGSATERECQALTAPSPQPPLVPRGGSTPKPSTLEPSLPEEDREGSDLRPVVIDGSNVAMSHGNKEVFSCRGILLAVNWFLERGHTDITVFVPSWRKEQPRPDVPITDQHILRELEKKKILVFTPSRRVGGKRVVCYDDRFIVKLAFESDGVVVSNDTYRDLQGERQEWKRFIEERLLMYSFVNDKFMPPDDPLGRHGPSLDNFLRKKPLPSEHRKQPCPYGKKCTYGIKCRFFHPERPSRPQRSVADELRANALLSPPRTPVKDKSSQRPSPASQSSSVSLEAEPGSLDGKKLGARSSPGPHREGSPQTCAPAGRSLPVSGGSFGPTEWLAHTQDSLPYTSQECLDSGIGSLESQMSELWGVRGGSPGESGPTRGPYAGYHSYGSKVPAAPSFSPFRPAMGAGHFSVPTDYVPPPPTYPSREYWSEPYPLPPPTPVLQEPQRPSPGAGGGPWGRVGDLAKERAGVYTKLCGVFPPHLVEAVMRRFPQLLDPQQLAAEILSYKSQHLSE
partner: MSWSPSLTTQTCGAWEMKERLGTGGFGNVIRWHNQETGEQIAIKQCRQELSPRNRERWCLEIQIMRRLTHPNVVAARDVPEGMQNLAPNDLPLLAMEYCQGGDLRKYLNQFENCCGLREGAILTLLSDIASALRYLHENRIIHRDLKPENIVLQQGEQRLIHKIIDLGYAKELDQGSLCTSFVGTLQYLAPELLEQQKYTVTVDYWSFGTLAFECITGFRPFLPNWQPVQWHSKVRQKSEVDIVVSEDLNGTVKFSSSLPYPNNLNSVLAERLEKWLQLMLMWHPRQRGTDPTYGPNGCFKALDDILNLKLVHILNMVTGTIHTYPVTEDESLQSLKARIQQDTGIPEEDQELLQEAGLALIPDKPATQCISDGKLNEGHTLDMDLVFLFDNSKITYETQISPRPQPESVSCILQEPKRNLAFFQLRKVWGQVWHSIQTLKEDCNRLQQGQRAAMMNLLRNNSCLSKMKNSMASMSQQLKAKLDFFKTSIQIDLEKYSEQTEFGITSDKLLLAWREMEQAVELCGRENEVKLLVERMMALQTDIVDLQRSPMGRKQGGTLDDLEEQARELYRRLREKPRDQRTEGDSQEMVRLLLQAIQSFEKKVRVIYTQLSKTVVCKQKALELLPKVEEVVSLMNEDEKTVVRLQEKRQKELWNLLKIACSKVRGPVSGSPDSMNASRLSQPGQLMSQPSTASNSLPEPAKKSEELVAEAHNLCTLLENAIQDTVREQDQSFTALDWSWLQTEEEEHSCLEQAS

Variants of: B1
Conditions: with ikkb_human IKBKB

Effect of a mutation on the interaction, decreasing interaction:
MSDPCGTKPVQESNPTMSLWSLEDRHSSQGRPQPDQDPVAKEAPTSELQMKVDFFRKLGYSSSEIHSVLQKLGVQADTNTVLGELVKHGSATERECQALTAPSPQPPLVPRGGSTPKPSTLEPSLPEEDREGSDLRPVVIDGSNVAMSHGNKEVFSCRGILLAVNWFLERGHTDITVFVPSWRKEQPRPDVPITDQHILRELEKKKILVFTPSRRVGGKRVVCYDDRFIVKLAFESDGVVVSNDTYRDLQGERQEWKRFIEERLLMYSFVNDKFMPPDDPLGRHGPSLDNFLRKKPLPSEHRKQPCPYGKKCTYGIKCRFFHPERPSRPQRSVADELRANALLSPPRTPVKDKSSQRPSPASQSSSVSLEAEPGSLDGKKLGARSSPGPHREGSPQTCAPAGRSLPVSGGSFGPTEWLAHTQDSLPYTSQECLDAGIGALESQMSELWGVRGGSPGESGPTRGPYAGYHSYGSKVPAAPSFSPFRPAMGAGHFSVPTDYVPPPPTYPSREYWSEPYPLPPPTPVLQEPQRPSPGAGGGPWGRVGDLAKERAGVYTKLCGVFPPHLVEAVMRRFPQLLDPQQLAAEILSYKSQHLSE [S435A;S439A]
MSDPCGTKPVQESNPTMSLWSLEDRHSSQGRPQPDQDPVAKEAPTSELQMKVDFFRKLGYSSSEIHSVLQKLGVQADTNTVLGELVKHGSATERECQALTAPSPQPPLVPRGGSTPKPSTLEPSLPEEDREGSDLRPVVIDGSNVAMSHGNKEVFSCRGILLAVNWFLERGHTDITVFVPSWRKEQPRPDVPITDQHILRELEKKKILVFTPSRRVGGKRVVCYDDRFIVKLAFESDGVVVSNDTYRDLQGERQEWKRFIEERLLMYSFVNDKFMPPDDPLGRHGPSLDNFLRKKPLPSEHRKQPCPYGKKCTYGIKCRFFHPERPSRPQRSVADELRANALLSPPRTPVKDKSSQRPSPASQSSSVSLEAEPGSLDGKKLGARSSPGPHREGSPQTCAPAGRSLPVSGGSFGPTEWLAHTQDSLPYTSQECLDAGIGSLESQMSELWGVRGGSPGESGPTRGPYAGYHSYGSKVPAAPSFSPFRPAMGAGHFSVPTDYVPPPPTYPSREYWSEPYPLPPPTPVLQEPQRPSPGAGGGPWGRVGDLAKERAGVYTKLCGVFPPHLVEAVMRRFPQLLDPQQLAAEILSYKSQHLSE [S435A]
MSDPCGTKPVQESNPTMSLWSLEDRHSSQGRPQPDQDPVAKEAPTSELQMKVDFFRKLGYSSSEIHSVLQKLGVQADTNTVLGELVKHGSATERECQALTAPSPQPPLVPRGGSTPKPSTLEPSLPEEDREGSDLRPVVIDGSNVAMSHGNKEVFSCRGILLAVNWFLERGHTDITVFVPSWRKEQPRPDVPITDQHILRELEKKKILVFTPSRRVGGKRVVCYDDRFIVKLAFESDGVVVSNDTYRDLQGERQEWKRFIEERLLMYSFVNDKFMPPDDPLGRHGPSLDNFLRKKPLPSEHRKQPCPYGKKCTYGIKCRFFHPERPSRPQRSVADELRANALLSPPRTPVKDKSSQRPSPASQSSSVSLEAEPGSLDGKKLGARSSPGPHREGSPQTCAPAGRSLPVSGGSFGPTEWLAHTQDSLPYTSQECLDSGIGALESQMSELWGVRGGSPGESGPTRGPYAGYHSYGSKVPAAPSFSPFRPAMGAGHFSVPTDYVPPPPTYPSREYWSEPYPLPPPTPVLQEPQRPSPGAGGGPWGRVGDLAKERAGVYTKLCGVFPPHLVEAVMRRFPQLLDPQQLAAEILSYKSQHLSE [S439A]
